Assay results from patent US20220340666A1 (NEW YORK UNIVERSITY, published 2022).

Experiments:
[1] = biological target: T1, human Galectin-9 CRD1 (residues 1-148), biotinylated (human, UniProt O00182 1-148, biotinylated in vitro with BirA (Avitag)); assay: phage ELISA, phage-displayed Fab on biotinylated CRD
T1 construct: Made as GST fusion, GST cleaved off with thrombin, gel filtered, biotinylated; not shown: Avitag upstream of the cloned gene (pGEX vector), left after thrombin cleavage from GST

[2] = biological target: T1, human Galectin-9 CRD1 (residues 1-148), …; assay: bead-based binding assay, flow cytometry
Experimental: The affinities of the antibodies were assessed using a bead-based assay as previously described (Nishikori et al., J Mol Biol, 2012, 424, 391-399) and surface plasmon resonance (SPR). In the bead-based assay, a biotinylated protein (either a Galectin-9 sample or a Fab sample) was immobilized on streptavidin-coated Dynabeads M280 via the biotin-streptavidin interaction. After blocking the excess biotin-binding sites on the beads using unconjugated biotin, binding titration was performed by incubating the second component (i.e., Fab for immobilized Galectin-9 or vice versa), followed by quantification using a dye-labeled neutravidin (ThermoFisher) and flow cytometry analysis. In experiments where the second component is an IgG, a dye-labeled anti-human IgG or anti-mouse IgG antibody was used for detection.

T1 sequence (O00182 1-148): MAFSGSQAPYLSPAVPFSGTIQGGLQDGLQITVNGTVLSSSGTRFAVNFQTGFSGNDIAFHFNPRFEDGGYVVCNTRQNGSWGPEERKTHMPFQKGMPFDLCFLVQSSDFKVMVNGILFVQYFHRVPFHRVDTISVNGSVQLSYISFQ

Row | Binder | binding result [1] | Kd [2] | also measured
1 | G9.1-1 Fab (Fab, V domains shown) VH: EVQLVESGGGLVQPGGSLRLSCAASGFTFSSSSIHWVRQAPGKGLEWVASIYSSYGYTYYADSVKGRFTISADTSKNTAYLQMNSLRAEDTAVYYCARYYWGWSQNQGFWWYGLDYWGQGTLVTVSS VL: DIQMTQSPSSLSASVGDRVTITCRASQSVSSAVAWYQQKPGKAPKLLIYSASSLYSGVPSRFSGSRSGTDFTLTISSLQPEDFATYYCQQSWVGSLITFGQGTKVEIKR | binds |  | 
2 | G9.1-10 Fab (Fab, V domains shown) VH: EVQLVESGGGLVQPGGSLRLSCAASGFTVSYSSIHWVRQAPGKGLEWVASIYSYYGSTYYADSVKGRFTISADTSKNTAYLQMNSLRAEDTAVYYCARGHYQEGRKSGFSYWSPALDYWGQGTLVTVSS VL: DIQMTQSPSSLSASVGDRVTITCRASQSVSSAVAWYQQKPGKAPKLLIYSASSLYSGVPSRFSGSRSGTDFTLTISSLQPEDFATYYCQQWYWYYPVTFGQGTKVEIKR | binds |  | 
3 | G9.1-11 Fab (Fab, V domains shown, Avitag at the C-terminus of the heavy chain, biotinylated when required) VH: EVQLVESGGGLVQPGGSLRLSCAASGFTVYSSSIHWVRQAPGKGLEWVASIYSYYGYTSYADSVKGRFTISADTSKNTAYLQMNSLRAEDTAVYYCARSTEGYDRWGYYSSYWSSGLDYWGQGTLVTVSS VL: DIQMTQSPSSLSASVGDRVTITCRASQSVSSAVAWYQQKPGKAPKLLIYSASSLYSGVPSRFSGSRSGTDFTLTISSLQPEDFATYYCQQTYWGLITFGQGTKVEIKR | binds |  | 
4 | G9.1-2 Fab (Fab, V domains shown) VH: EVQLVESGGGLVQPGGSLRLSCAASGFTISSSSIHWVRQAPGKGLEWVASISSYYGSTYYADSVKGRFTISADTSKNTAYLQMNSLRAEDTAVYYCARSWSSSFWYNWALDYWGQGTLVTVSS VL: DIQMTQSPSSLSASVGDRVTITCRASQSVSSAVAWYQQKPGKAPKLLIYSASSLYSGVPSRFSGSRSGTDFTLTISSLQPEDFATYYCQQWQWGYSLVTFGQGTKVEIKR | binds |  | 
5 | G9.1-3 Fab (Fab, V domains shown) VH: EVQLVESGGGLVQPGGSLRLSCAASGFTIYSSSIHWVRQAPGKGLEWVAYIYSSSGYTSYADSVKGRFTISADTSKNTAYLQMNSLRAEDTAVYYCARYSHSSLYYSWIWALDYWGQGTLVTVSS VL: DIQMTQSPSSLSASVGDRVTITCRASQSVSSAVAWYQQKPGKAPKLLIYSASSLYSGVPSRFSGSRSGTDFTLTISSLQPEDFATYYCQQSWYSNKPITFGQGTKVEIKR | binds |  | 
6 | G9.1-4 Fab (Fab, V domains shown) VH: EVQLVESGGGLVQPGGSLRLSCAASGFTIYYSSIHWVRQAPGKGLEWVASISSSSGSTSYADSVKGRFTISADTSKNTAYLQMNSLRAEDTAVYYCARSYRPYSSYYWGMDYWGQGTLVTVSS VL: DIQMTQSPSSLSASVGDRVTITCRASQSVSSAVAWYQQKPGKAPKLLIYSASSLYSGVPSRFSGSRSGTDFTLTISSLQPEDFATYYCQQSSSSLITFGQGTKVEIKR | binds |  | 
7 | G9.1-8m1 mIgG1 (antibody, V domains shown, Human/mouse hybrid IgG: CH1 and CL human, Fc mouse IgG1; also called G9.1-8mut1) VH: EVQLVESGGGLVQPGGSLRLSCAASGFTVSSSSIHWVRQAPGKGLEWVASSSSSSGYTSYADSVKGRFTISADTSKNTAYLQMNSLRAEDTAVYYCARYSTYSWGGIGKWVWGMDYWGQGTLVTVSS VL: DIQMTQSPSSLSASVGDRVTITCRASQSVSSAVAWYQQKPGKAPKLLIYSASSLYSGVPSRFSGSRSGTDFTLTISSLQPEDFATYYCQQSYYDSNPITFGQGTKVEIKR |  |  | binding result [2]: no binding
8 | G9.1-8m2 mIgG1 (antibody, V domains shown, Human/mouse hybrid IgG: CH1 and CL human, Fc mouse IgG1; also called G9.1-8mut2) VH: EVQLVESGGGLVQPGGSLRLSCAASGFTVSSSSIHWVRQAPGKGLEWVAYIYPYSSSSSYADSVKGRFTISADTSKNTAYLQMNSLRAEDTAVYYCARYSTYSWGGIGKWVWGMDYWGQGTLVTVSS VL: DIQMTQSPSSLSASVGDRVTITCRASQSVSSAVAWYQQKPGKAPKLLIYSASSLYSGVPSRFSGSRSGTDFTLTISSLQPEDFATYYCQQSYYDSNPITFGQGTKVEIKR |  | 6.51 nM | 
9 | G9.1-8m3 mIgG1 (antibody, V domains shown, Human/mouse hybrid IgG: CH1 and CL human, Fc mouse IgG1; also called G9.1-8mut3) VH: EVQLVESGGGLVQPGGSLRLSCAASGFTVSSSSIHWVRQAPGKGLEWVAYIYPYSGYTSYADSVKGRFTISADTSKNTAYLQMNSLRAEDTAVYYCARSSSSSWGGIGKWVWGMDYWGQGTLVTVSS VL: DIQMTQSPSSLSASVGDRVTITCRASQSVSSAVAWYQQKPGKAPKLLIYSASSLYSGVPSRFSGSRSGTDFTLTISSLQPEDFATYYCQQSYYDSNPITFGQGTKVEIKR |  |  | binding result [2]: no binding
10 | G9.1-8m4 mIgG1 (antibody, V domains shown, Human/mouse hybrid IgG: CH1 and CL human, Fc mouse IgG1; also called G9.1-8mut4) VH: EVQLVESGGGLVQPGGSLRLSCAASGFTVSSSSIHWVRQAPGKGLEWVAYIYPYSGYTSYADSVKGRFTISADTSKNTAYLQMNSLRAEDTAVYYCARYSTYSSSSSSKWVWGMDYWGQGTLVTVSS VL: DIQMTQSPSSLSASVGDRVTITCRASQSVSSAVAWYQQKPGKAPKLLIYSASSLYSGVPSRFSGSRSGTDFTLTISSLQPEDFATYYCQQSYYDSNPITFGQGTKVEIKR |  | 12 nM | 
11 | G9.1-8m5 mIgG1 (antibody, V domains shown, Human/mouse hybrid IgG: CH1 and CL human, Fc mouse IgG1; also called G9.1-8mut5) VH: EVQLVESGGGLVQPGGSLRLSCAASGFTVSSSSIHWVRQAPGKGLEWVAYIYPYSGYTSYADSVKGRFTISADTSKNTAYLQMNSLRAEDTAVYYCARYSTYSWGGIGSSSSSMDYWGQGTLVTVSS VL: DIQMTQSPSSLSASVGDRVTITCRASQSVSSAVAWYQQKPGKAPKLLIYSASSLYSGVPSRFSGSRSGTDFTLTISSLQPEDFATYYCQQSYYDSNPITFGQGTKVEIKR |  |  | binding result [2]: no binding
12 | G9.1-8m6 Fab (Fab, V domains shown, Purified Fab; also called G9.1-8mut6) VH: EVQLVESGGGLVQPGGSLRLSCAASGFTVSSSSIHWVRQAPGKGLEWVAYIYPYSGYTSYADSVKGRFTISADTSKNTAYLQMNSLRAEDTAVYYCARYSTYSSSSSKWVWGMDYWGQGTLVTVSS VL: DIQMTQSPSSLSASVGDRVTITCRASQSVSSAVAWYQQKPGKAPKLLIYSASSLYSGVPSRFSGSRSGTDFTLTISSLQPEDFATYYCQQSYYDSNPITFGQGTKVEIKR |  | 0.52 nM | 
13 | G9.1-8m7 Fab (Fab, V domains shown, Purified Fab; also called G9.1-8mut7) VH: EVQLVESGGGLVQPGGSLRLSCAASGFTVSSSSIHWVRQAPGKGLEWVAYIYPYSGYTSYADSVKGRFTISADTSKNTAYLQMNSLRAEDTAVYYCARYSTYSSSSKWVWGMDYWGQGTLVTVSS VL: DIQMTQSPSSLSASVGDRVTITCRASQSVSSAVAWYQQKPGKAPKLLIYSASSLYSGVPSRFSGSRSGTDFTLTISSLQPEDFATYYCQQSYYDSNPITFGQGTKVEIKR |  | 0.93 nM | 
14 | G9.1-8m8 Fab (Fab, V domains shown, Purified Fab; also called G9.1-8mut8) VH: EVQLVESGGGLVQPGGSLRLSCAASGFTVSSSSIHWVRQAPGKGLEWVAYIYPYSGYTSYADSVKGRFTISADTSKNTAYLQMNSLRAEDTAVYYCARYSTYSSSKWVWGMDYWGQGTLVTVSS VL: DIQMTQSPSSLSASVGDRVTITCRASQSVSSAVAWYQQKPGKAPKLLIYSASSLYSGVPSRFSGSRSGTDFTLTISSLQPEDFATYYCQQSYYDSNPITFGQGTKVEIKR |  | 0.56 nM | 
15 | G9.1-8m9 Fab (Fab, V domains shown, Purified Fab; also called G9.1-8mut9) VH: EVQLVESGGGLVQPGGSLRLSCAASGFTVSSSSIHWVRQAPGKGLEWVAYIYPYSGYTSYADSVKGRFTISADTSKNTAYLQMNSLRAEDTAVYYCARYSTYSSKWVWGMDYWGQGTLVTVSS VL: DIQMTQSPSSLSASVGDRVTITCRASQSVSSAVAWYQQKPGKAPKLLIYSASSLYSGVPSRFSGSRSGTDFTLTISSLQPEDFATYYCQQSYYDSNPITFGQGTKVEIKR |  | 1.57 nM | 
16 | G9.1-8m10 Fab (Fab, V domains shown, Purified Fab; also called G9.1-8mut10) VH: EVQLVESGGGLVQPGGSLRLSCAASGFTVSSSSIHWVRQAPGKGLEWVAYIYPYSGYTSYADSVKGRFTISADTSKNTAYLQMNSLRAEDTAVYYCARYSTYSKWVWGMDYWGQGTLVTVSS VL: DIQMTQSPSSLSASVGDRVTITCRASQSVSSAVAWYQQKPGKAPKLLIYSASSLYSGVPSRFSGSRSGTDFTLTISSLQPEDFATYYCQQSYYDSNPITFGQGTKVEIKR |  | 58.4 nM | 
17 | G9.1-8m11 Fab (Fab, V domains shown, Purified Fab; also called G9.1-8mut11) VH: EVQLVESGGGLVQPGGSLRLSCAASGFTVSSSSIHWVRQAPGKGLEWVAYIYPYSGYTSYADSVKGRFTISADTSKNTAYLQMNSLRAEDTAVYYCARYSTYKWVWGMDYWGQGTLVTVSS VL: DIQMTQSPSSLSASVGDRVTITCRASQSVSSAVAWYQQKPGKAPKLLIYSASSLYSGVPSRFSGSRSGTDFTLTISSLQPEDFATYYCQQSYYDSNPITFGQGTKVEIKR |  | 52.7 nM | 
18 | G9.1-8m8 mIgG2a (antibody, V domains shown, also called G9.1-8mut8) VH: EVQLVESGGGLVQPGGSLRLSCAASGFTVSSSSIHWVRQAPGKGLEWVAYIYPYSGYTSYADSVKGRFTISADTSKNTAYLQMNSLRAEDTAVYYCARYSTYSSSKWVWGMDYWGQGTLVTVSS VL: DIQMTQSPSSLSASVGDRVTITCRASQSVSSAVAWYQQKPGKAPKLLIYSASSLYSGVPSRFSGSRSGTDFTLTISSLQPEDFATYYCQQSYYDSNPITFGQGTKVEIKR |  | 0.51 nM | 
19 | G9.1-8m9 mIgG2a (antibody, V domains shown, also called G9.1-8mut9) VH: EVQLVESGGGLVQPGGSLRLSCAASGFTVSSSSIHWVRQAPGKGLEWVAYIYPYSGYTSYADSVKGRFTISADTSKNTAYLQMNSLRAEDTAVYYCARYSTYSSKWVWGMDYWGQGTLVTVSS VL: DIQMTQSPSSLSASVGDRVTITCRASQSVSSAVAWYQQKPGKAPKLLIYSASSLYSGVPSRFSGSRSGTDFTLTISSLQPEDFATYYCQQSYYDSNPITFGQGTKVEIKR |  | 0.71 nM | 
20 | G9.1-8m11 mIgG2a (antibody, V domains shown, also called G9.1-8mut11) VH: EVQLVESGGGLVQPGGSLRLSCAASGFTVSSSSIHWVRQAPGKGLEWVAYIYPYSGYTSYADSVKGRFTISADTSKNTAYLQMNSLRAEDTAVYYCARYSTYKWVWGMDYWGQGTLVTVSS VL: DIQMTQSPSSLSASVGDRVTITCRASQSVSSAVAWYQQKPGKAPKLLIYSASSLYSGVPSRFSGSRSGTDFTLTISSLQPEDFATYYCQQSYYDSNPITFGQGTKVEIKR |  | 1.46 nM | 
